The term IC50 denotes the concentration that gives 50% inhibition. A higher IC50 goes with weaker potency in that assay.

Assay in all cases: competition phage ELISA
(ELISA stands for enzyme-linked immunosorbent assay.)

Assay [1] addresses T1, Bcl-w.
T1 chain: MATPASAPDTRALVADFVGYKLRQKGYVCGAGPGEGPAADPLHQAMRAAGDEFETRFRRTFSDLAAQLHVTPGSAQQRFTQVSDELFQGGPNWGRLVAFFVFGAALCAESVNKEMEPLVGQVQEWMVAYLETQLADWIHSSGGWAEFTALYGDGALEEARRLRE

The next assay deals with Bcl-2.
Assay [2] addresses T1, Bcl-w.

Read-outs that look alike come from different tables or passages of the source.

Bcl-2, sequence (chain, as listed by the source): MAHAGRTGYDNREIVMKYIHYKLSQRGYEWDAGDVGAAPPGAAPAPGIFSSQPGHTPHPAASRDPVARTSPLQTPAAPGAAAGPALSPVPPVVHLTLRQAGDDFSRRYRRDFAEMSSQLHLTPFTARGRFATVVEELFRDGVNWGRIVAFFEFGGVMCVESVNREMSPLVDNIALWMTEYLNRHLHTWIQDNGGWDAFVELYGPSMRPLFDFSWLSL

B1: Bad BH3 A5E, phage-displayed (peptide)
peptide: NLWAEQRYGRELRRMSDEFVDSFKKG
notes: M13 phage display: FLAG-26mer-GGGT-g3(249-406)
As to B1, in the assay with Bcl-w [1], the Fold/wt turned out to be 4 fold and the half-maximal inhibitory concentration (IC50) was found to be 152 nM. Moreover, in the assay with Bcl-2, the Fold/wt was 2 fold and the 50% inhibitory concentration (IC50) turned out to be 26 nM.

B2: Bid BH3 H11A, phage-displayed (peptide)
peptide: QEDIIRNIARALAQVGDSMDRSIPPG
notes: as for B1
For B2, in the assay with Bcl-w [2], the Fold/wt is 1 fold and the 50% inhibitory concentration (IC50) turned out to be 17 nM.

B3: Bid BH3 D20A, phage-displayed (peptide)
peptide: QEDIIRNIARHLAQVGDSMARSIPPG
notes: as for B1
In the assay with Bcl-w [2], B3 had a Fold/wt of 1 fold and a concentration for half-maximal inhibition (IC50) of 24 nM.

B4: Bid BH3 V15A, phage-displayed (peptide)
peptide: QEDIIRNIARHLAQAGDSMDRSIPPG
notes: as for B1
In the assay with Bcl-w [2], B4 showed a Fold/wt of 3 fold and a 50% inhibitory concentration (IC50) of 59 nM.

B5: Bid BH3 R6A, phage-displayed (peptide)
peptide: QEDIIANIARHLAQVGDSMDRSIPPG
notes: as for B1
In the assay with Bcl-w [2], B5 displayed a Fold/wt of 2 fold and an IC50 of 42 nM.

B6: Bid BH3 G26E, phage-displayed (peptide)
peptide: QEDIIRNIARHLAQVGDSMDRSIPPE
notes: as for B1
With B6, in the assay with Bcl-w [2], the Fold/wt was 1 fold and the concentration for half-maximal inhibition (IC50) came to 25 nM.

B7: Bid BH3 I23A, phage-displayed (peptide)
peptide: QEDIIRNIARHLAQVGDSMDRSAPPG
notes: as for B1
In the assay with Bcl-w [2], B7 came in with a Fold/wt of 1 fold and a 50% inhibitory concentration (IC50) of 18 nM.

B8: Bid BH3 Q1A, phage-displayed (peptide)
peptide: AEDIIRNIARHLAQVGDSMDRSIPPG
notes: as for B1
B8: in the assay with Bcl-w [2], the Fold/wt was 1 fold and the IC50 came out at 29 nM.

B9: Bid BH3 L12A, phage-displayed (peptide)
peptide: QEDIIRNIARHAAQVGDSMDRSIPPG
notes: as for B1
In the assay with Bcl-w [2], B9 displayed a Fold/wt of 25 fold and an IC50 of 553 nM.

B10: Bid BH3 R10A, phage-displayed (peptide)
peptide: QEDIIRNIAAHLAQVGDSMDRSIPPG
notes: as for B1
In the assay with Bcl-w [2], B10 yielded a Fold/wt of 2 fold and an IC50 of 46 nM.

B11: Bid BH3 P24A, phage-displayed (peptide)
peptide: QEDIIRNIARHLAQVGDSMDRSIAPG
notes: as for B1
On to B11, for which, in the assay with Bcl-w [2], the Fold/wt amounted to 1 fold and the IC50 worked out at 25 nM.

B12: Bid BH3 S22A, phage-displayed (peptide)
peptide: QEDIIRNIARHLAQVGDSMDRAIPPG
notes: as for B1
For the molecule B12, in the assay with Bcl-w [2], the Fold/wt was found to be 1 fold and the IC50 is 27 nM.

B13: Bad BH3 A4E, phage-displayed (peptide)
peptide: NLWEAQRYGRELRRMSDEFVDSFKKG
notes: as for B1
For the molecule B13, in the assay with Bcl-w [1], the Fold/wt was found to be 1 fold and the 50% inhibitory concentration (IC50) came to 46 nM. Also, in the assay with Bcl-2, the Fold/wt came out at 1 fold and the IC50 was found to be 10 nM.

B14: Bid BH3 R21A, phage-displayed (peptide)
peptide: QEDIIRNIARHLAQVGDSMDASIPPG
notes: as for B1
Turning to B14, in the assay with Bcl-w [2], the Fold/wt came out at 2 fold and the 50% inhibitory concentration (IC50) worked out at 52 nM.

B15: Bad BH3 D17A, phage-displayed (peptide)
peptide: NLWAAQRYGRELRRMSAEFVDSFKKG
notes: as for B1
In the assay with Bcl-w [1], B15 had a Fold/wt of 3 fold and a 50% inhibitory concentration (IC50) of 128 nM.

B16: Bad BH3 F23A, phage-displayed (peptide)
peptide: NLWAAQRYGRELRRMSDEFVDSAKKG
notes: as for B1
For B16, in the assay with Bcl-w [1], the Fold/wt turned out to be 2 fold and the IC50 was 83 nM.

B17: Bad BH3 Y8A, phage-displayed (peptide)
peptide: NLWAAQRAGRELRRMSDEFVDSFKKG
notes: as for B1
In the assay with Bcl-w [1], B17 showed a Fold/wt of 2 fold and a half-maximal inhibitory concentration (IC50) of 77 nM. In the assay with Bcl-2, this molecule came in with a Fold/wt of 1 fold and an IC50 of 19 nM.

B18: Bid BH3 I8A, phage-displayed (peptide)
peptide: QEDIIRNAARHLAQVGDSMDRSIPPG
notes: as for B1
In the assay with Bcl-w [2], B18 registered a Fold/wt of 8 fold and an IC50 of 182 nM.

B19: Bid BH3 wild type, phage-displayed (peptide)
peptide: QEDIIRNIARHLAQVGDSMDRSIPPG
notes: M13 phage display: FLAG-26mer-GGGT-g3(249-406); also called wtBid
In the assay with Bcl-w [2], B19 displayed a Fold/wt of 1 fold and an IC50 of 23 nM.

B20: Bid BH3 N7A, phage-displayed (peptide)
peptide: QEDIIRAIARHLAQVGDSMDRSIPPG
notes: as for B1
In the assay with Bcl-w [2], B20 showed a Fold/wt of 1 fold and a concentration for half-maximal inhibition (IC50) of 25 nM.

B21: Bad BH3 W3A, phage-displayed (peptide)
peptide: NLAAAQRYGRELRRMSDEFVDSFKKG
notes: as for B1
In the assay with Bcl-w [1], B21 showed a Fold/wt of 1 fold and a half-maximal inhibitory concentration (IC50) of 33 nM. For the same molecule, in the assay with Bcl-2, the Fold/wt turned out to be 1 fold and the IC50 was found to be 12 nM.

B22: Bid BH3 D3A, phage-displayed (peptide)
peptide: QEAIIRNIARHLAQVGDSMDRSIPPG
notes: as for B1
B22: in the assay with Bcl-w [2], the Fold/wt was 1 fold and the IC50 stood at 34 nM.

B23: Bad BH3 L2A, phage-displayed (peptide)
peptide: NAWAAQRYGRELRRMSDEFVDSFKKG
notes: as for B1
As for B23, the Fold/wt with Bcl-w [1] and in the assay with Bcl-2 was 1 fold each time. For the same molecule, the values for the half-maximal inhibitory concentration (IC50) with Bcl-w [1] and with Bcl-2 were 35 nM and 7 nM, respectively.

B24: Bid BH3 A13E, phage-displayed (peptide)
peptide: QEDIIRNIARHLEQVGDSMDRSIPPG
notes: as for B1
In the assay with Bcl-w [2], B24 registered a Fold/wt of 11 fold and a 50% inhibitory concentration (IC50) of 253 nM.

B25: Bid BH3 I4A, phage-displayed (peptide)
peptide: QEDAIRNIARHLAQVGDSMDRSIPPG
notes: as for B1
In the assay with Bcl-w [2], B25 displayed a Fold/wt of 1 fold and a 50% inhibitory concentration (IC50) of 23 nM.

B26: Bid BH3 I5A, phage-displayed (peptide)
peptide: QEDIARNIARHLAQVGDSMDRSIPPG
notes: as for B1
For B26, in the assay with Bcl-w [2], the Fold/wt turned out to be 2 fold and the half-inhibitory concentration (IC50) worked out at 34 nM.

B27: Bad BH3 R7A, phage-displayed (peptide)
peptide: NLWAAQAYGRELRRMSDEFVDSFKKG
notes: as for B1
In the assay with Bcl-w [1], B27 had a Fold/wt of 1 fold and an IC50 of 32 nM. In addition, in the assay with Bcl-2, the Fold/wt stood at 1 fold and the IC50 turned out to be 14 nM.

B28: Bid BH3 S18A, phage-displayed (peptide)
peptide: QEDIIRNIARHLAQVGDAMDRSIPPG
notes: as for B1
In the assay with Bcl-w [2], B28 came in with a Fold/wt of 1 fold and an IC50 of 31 nM.

B29: Bad BH3 N1A, phage-displayed (peptide)
peptide: ALWAAQRYGRELRRMSDEFVDSFKKG
notes: as for B1
In the assay with Bcl-w [1], B29 came in with a Fold/wt of 1 fold and an IC50 of 47 nM. In addition, in the assay with Bcl-2, the Fold/wt turned out to be 1 fold and the half-maximal inhibitory concentration (IC50) stood at 10 nM.

B30: Bid BH3 Q14A, phage-displayed (peptide)
peptide: QEDIIRNIARHLAAVGDSMDRSIPPG
notes: as for B1
In the assay with Bcl-w [2], B30 displayed a Fold/wt of 1 fold and a 50% inhibitory concentration (IC50) of 25 nM.

B31: Bid BH3 E2A, phage-displayed (peptide)
peptide: QADIIRNIARHLAQVGDSMDRSIPPG
notes: as for B1
Take B31: in the assay with Bcl-w [2], the Fold/wt was 2 fold and the half-inhibitory concentration (IC50) came to 34 nM.

B32: Bid BH3 P25A, phage-displayed (peptide)
peptide: QEDIIRNIARHLAQVGDSMDRSIPAG
notes: as for B1
In the case of B32, in the assay with Bcl-w [2], the Fold/wt stood at 1 fold and the IC50 turned out to be 26 nM.

B33: Bad BH3 Q6A, phage-displayed (peptide)
peptide: NLWAAARYGRELRRMSDEFVDSFKKG
notes: as for B1
On to B33, for which the Fold/wt with Bcl-w [1] and with Bcl-2 was 1 fold each time. In addition, the IC50 with Bcl-w [1] was determined as 47 nM; in the assay with Bcl-2 it was 18 nM.

Source of the values: patent US20090048164A1 (WALTER AND ELIZA HALL INSTITUTE OF MEDICAL RESEARCH, published 2009).
